Experimental data: paper PMC8759595

target: endogenous VAPB (COS-7 cells); experiment: co-immunoprecipitation (Myc-TRAP) with quantified immunoblot; conditions: COS-7 cell lysate treated with λ-phosphatase before IP, relative to phosphatase-inhibitor sample; parent: est. 0.5; read off a plot

Row | Substance | other: remaining VAPB binding (% of untreated) (% of untreated)
1 | Myc-ACBD5 (from UniProt Q5T8D3-2) S259E; S261E; S263E | 22

same assay, conditions: COS-7 cell lysate treated with λ-phosphatase before IP, relative to phosphatase-inhibitor sample; parent: est. 4.5; read off a plot

Row | Substance | other: remaining VAPB binding (% of untreated) (% of untreated)
2 | Myc-ACBD5 (from UniProt Q5T8D3-2) S261E | 21
3 | Myc-ACBD5 (from UniProt Q5T8D3-2) S263E | 8
4 | Myc-ACBD5 (from UniProt Q5T8D3-2) S259E | 7.5

same assay, conditions: COS-7 cell lysate; at least three independent IPs; parent: est. 1.0; read off a plot

Row | Substance | ratio to parent
5 | Myc-ACBD5 (from UniProt Q5T8D3-2) S259A; S261A; S263A | 0.15
6 | Myc-ACBD5 (from UniProt Q5T8D3-2) S261A; S263A | 0.22
7 | Myc-ACBD5 (from UniProt Q5T8D3-2) S261A | 0.35
8 | Myc-ACBD5 (from UniProt Q5T8D3-2) T258A; S259A | 0.53
9 | Myc-ACBD5 (from UniProt Q5T8D3-2) S259A | 0.81
10 | Myc-ACBD5 (from UniProt Q5T8D3-2) S263A | 0.42
11 | Myc-ACBD5 (from UniProt Q5T8D3-2) S259A; S261A | 0.3

target: endogenous VAPB (COS-7 cells); experiment: co-immunoprecipitation (anti-FLAG) with quantified immunoblot; conditions: COS-7 cell lysate; n = 5; parent: est. 1.0; read off a plot

Row | Substance | ratio to parent
12 | FLAG-ACBD4 (from UniProt Q8NC06) S166E; S169E; S171E | 4.4
13 | FLAG-ACBD4 (from UniProt Q8NC06) S166A; S169A; S171A | 1.7
